Assay results published in article PMC12069552, “Root stem cell homeostasis in Arabidopsis involves cell-type specific transcription factor complexes” (EMBO Reports, 2025).

Assays:
[1] = target: T1, WOX5-mV(N) BRAVO-mV(C) heterodimer (BiFC donor) (Arabidopsis thaliana, UniProt Q8H1D2 1-182; Q6R053 1-323); experiment: split reporter (BiFC, NanoBiT) + FRET or BRET; BiFC-FRET-FLIM in nuclei of N. benthamiana epidermal leaf cells; mVenus donor split into mV(N) and mV(C) on two proteins, third protein with mCherry as acceptor; 'binding' [%]; binding cutoff 10%; conditions: partners not purified
T1 construct: WUSCHEL-RELATED HOMEOBOX 5 (WOX5) of Arabidopsis thaliana; the CDS, described in Burkart et al, 2022; BRAVO, R2R3-MYB transcription factor of Arabidopsis thaliana; the CDS amplified from cDNA; also called WOX5-mV(N) and BRAVO-mV(C); source: N. benthamiana leaf cells, transiently co-expressed, in cells
T1 sequence (looked up) 1: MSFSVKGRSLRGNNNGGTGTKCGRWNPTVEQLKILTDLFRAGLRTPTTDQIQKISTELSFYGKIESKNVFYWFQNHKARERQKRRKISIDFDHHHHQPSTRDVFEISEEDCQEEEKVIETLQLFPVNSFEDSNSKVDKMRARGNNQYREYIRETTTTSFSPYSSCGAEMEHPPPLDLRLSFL
T1 sequence (looked up) 2: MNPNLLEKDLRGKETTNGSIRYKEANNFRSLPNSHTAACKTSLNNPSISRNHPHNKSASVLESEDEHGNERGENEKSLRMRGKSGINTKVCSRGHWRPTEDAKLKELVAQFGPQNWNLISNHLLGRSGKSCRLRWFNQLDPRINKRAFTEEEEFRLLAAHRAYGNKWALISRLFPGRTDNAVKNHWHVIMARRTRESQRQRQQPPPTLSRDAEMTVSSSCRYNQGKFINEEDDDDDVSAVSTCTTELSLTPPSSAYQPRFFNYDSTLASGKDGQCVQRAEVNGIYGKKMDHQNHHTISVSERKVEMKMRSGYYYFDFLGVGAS

[2] = target: BES1D-mVenus (Arabidopsis thaliana) (UniProt Q9LN63); experiment: FRET or BRET; FRET-FLIM in nuclei of transiently expressing N. benthamiana epidermal leaf cells; mVenus fusion as donor, mCherry fusion as acceptor; 'binding' [%] is the amplitude of the FRET component (number of donor molecules undergoing FRET); binding cutoff 10%; a binding not significantly different from the negative control (mCherry-NLS) is regarded as no interaction
Chain of BES1D-mVenus (Arabidopsis thaliana) (Q9LN63 whole entry, the tested form may be a part): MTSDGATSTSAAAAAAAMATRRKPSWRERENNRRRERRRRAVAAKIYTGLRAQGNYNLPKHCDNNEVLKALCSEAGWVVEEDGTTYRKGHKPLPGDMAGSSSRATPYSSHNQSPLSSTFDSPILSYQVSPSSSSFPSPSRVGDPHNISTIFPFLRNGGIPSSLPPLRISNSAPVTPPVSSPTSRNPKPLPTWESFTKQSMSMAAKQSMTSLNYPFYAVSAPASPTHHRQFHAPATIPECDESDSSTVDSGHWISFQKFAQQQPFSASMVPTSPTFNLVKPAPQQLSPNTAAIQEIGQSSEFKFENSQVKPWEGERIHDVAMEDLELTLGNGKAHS

[3] = target: T2, TPL-mVenus (Arabidopsis thaliana, UniProt Q94AI7 1-1131); experiment: as above; conditions: partners not purified
T2 construct: TOPLESS (TPL) of Arabidopsis thaliana; the CDS amplified from cDNA; FRET donor; source: N. benthamiana abaxial epidermal leaf cells, transiently expressed (β-estradiol inducible), in cells
T2 sequence (looked up): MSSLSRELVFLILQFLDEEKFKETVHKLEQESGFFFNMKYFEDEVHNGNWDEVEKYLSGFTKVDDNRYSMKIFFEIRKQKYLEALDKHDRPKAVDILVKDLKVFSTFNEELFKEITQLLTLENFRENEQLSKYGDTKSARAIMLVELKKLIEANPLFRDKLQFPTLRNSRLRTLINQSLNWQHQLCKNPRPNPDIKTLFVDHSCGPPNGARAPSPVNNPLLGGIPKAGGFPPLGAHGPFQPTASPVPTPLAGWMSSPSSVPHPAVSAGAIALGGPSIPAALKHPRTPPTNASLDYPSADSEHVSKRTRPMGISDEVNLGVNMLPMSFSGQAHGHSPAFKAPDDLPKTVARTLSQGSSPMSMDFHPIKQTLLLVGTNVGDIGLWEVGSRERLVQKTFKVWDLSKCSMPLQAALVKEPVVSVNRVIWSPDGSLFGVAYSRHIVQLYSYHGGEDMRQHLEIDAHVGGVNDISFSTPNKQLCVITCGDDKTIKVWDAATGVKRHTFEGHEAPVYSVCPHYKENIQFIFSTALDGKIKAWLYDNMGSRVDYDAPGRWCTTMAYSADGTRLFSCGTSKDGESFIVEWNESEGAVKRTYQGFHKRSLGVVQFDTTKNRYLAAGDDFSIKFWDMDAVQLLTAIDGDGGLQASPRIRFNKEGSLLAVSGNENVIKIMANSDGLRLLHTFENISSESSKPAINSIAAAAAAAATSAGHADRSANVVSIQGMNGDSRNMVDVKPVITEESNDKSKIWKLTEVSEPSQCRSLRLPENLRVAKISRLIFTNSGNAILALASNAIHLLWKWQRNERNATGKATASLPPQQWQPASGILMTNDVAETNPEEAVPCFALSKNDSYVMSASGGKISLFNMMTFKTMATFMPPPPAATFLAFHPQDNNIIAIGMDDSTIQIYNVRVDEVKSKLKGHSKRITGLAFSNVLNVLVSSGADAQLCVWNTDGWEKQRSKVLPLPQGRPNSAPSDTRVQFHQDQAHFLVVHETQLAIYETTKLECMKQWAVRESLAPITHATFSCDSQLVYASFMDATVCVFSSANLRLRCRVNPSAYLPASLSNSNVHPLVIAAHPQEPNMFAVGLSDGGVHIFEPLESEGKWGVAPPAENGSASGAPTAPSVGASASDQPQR

B1: PLT3-mCherry (PLETHORA 3) (natural protein, Arabidopsis thaliana, UniProt Q52QU2 1-581, looked up)
chain: MMAPMTNWLTFSLSPMEMLRSSDQSQFVSYDASSAASSSPYLLDNFYGWSNQKPQEFFKEEAQLAAAASMADSTILTTFVDPQSHHSQNHIPKLEDFLGDSSSIVRYSDNSQTDTQDSSLTQIYDPRHHHNQTGFYSDHHDFKTMAGFQSAFSTNSGSEVDDSASIGRTHLAGDYLGHVVESSGPELGFHGGSTGALSLGVNVNNNTNHRNDNDNHYRGNNNGERINNNNNNDNEKTDSEKEKAVVAVETSDCSNKKIADTFGQRTSIYRGVTRHRWTGRYEAHLWDNSCRREGQARKGRQGGYDKEDKAARAYDLAALKYWNATATTNFPITNYSKEVEEMKHMTKQEFIASLRRKSSGFSRGASIYRGVTRHHQQGRWQARIGRVAGNKDLYLGTFATEEEAAEAYDIAAIKFRGINAVTNFEMNRYDVEAIMKSALPIGGAAKRLKLSLEAAASSEQKPILGHHQLHHFQQQQQQQQLQLQSSPNHSSINFALCPNSAVQSQQIIPCGIPFEAAALYHHHQQQQQHQQQQQQQNFFQHFPANAASDSTGSNNNSNVQGTMGLMAPNPAEFFLWPNQSY
notes: PLETHORA 3 (PLT3), APETALA2-type transcription factor of Arabidopsis thaliana; CDS and construct described in Burkart et al, 2022; FRET acceptor; construct XVE:PLT3-mCherry of Burkart et al, 2022; also called full-length PLT3; source: N. benthamiana abaxial epidermal leaf cells, transiently expressed (β-estradiol inducible), in cells
[1]
  binding (FRET-FLIM, share of donor molecules undergoing FRET): 31.5 ± 8.5%
[2]
  binding (FRET-FLIM, share of donor molecules undergoing FRET): 16.9%
[3]
  binding (FRET-FLIM, share of donor molecules undergoing FRET): 13.5 ± 4.3%
